US20250353917A1 (SYSTIMMUNE, published 2025)

Columns and labels:
[1] = molecular target: T1, soluble recombinant extracellular domain of human EGFR (human, UniProt P00533 25-645); assay: BLI (Octet), scFv-monoFc on AHC sensors, serial dilutions of EGFR extracellular domain;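 further: EGFR analyte titrated 0 to 200 nM, association 180–300 s then dissociation 300–600 s in PBS with 0.1% BSA and 0.05% Tween20, global 1:1 fit, duplicate means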
T1 construct: extracellular domain
Procedure: (§1) Fc-containing protein was captured to anti-human Fc (AHC) sensor tips by loading for 180 seconds at 10 μg/ml. Alternatively, His-tagged proteins were covalently coupled at 10 ug/ml to AR2G tips using manufacturer protocol. After a 60-second baseline step, a 180- to 300-second association phase with serial dilutions (0-200 nM; 1:2.5 dilution factor) or a single 100 nM concentration of purified human EGFR in assay buffer (phosphate-buffered saline containing 0.1% BSA, 0.05% Tween20) was performed, followed by a 300- to 600—second dissociation phase in assay buffer. Regeneration was achieved using 10 mM glycine, pH 1.5. Binding curves were globally fit to a 1:1 model to extract the dissociation constants, KD. Binding kinetics for each protein were assessed in duplicate, with tabulated values reported as average±standard deviation.
(§2) The monoFc domain was used to load proteins onto anti-human Fc (AHC) sensors, followed by binding of scFv to serial dilutions of the extracellular domain of human EGFR.

[2] = molecular target: T1, soluble recombinant extracellular …; assay: BLI of scFv-monoFc proteins, against wild-type cetuximab scFv-monoFc
Procedure: as §1, §2

| Binder | Kd [1] | koff [1] | kon [1] | fold decrease in binding affinity [2] |
| --- | --- | --- | --- | --- |
| SI-79SF4 (Fc fusion, also called H4; H4 scFv-monoFc) EIVLTQSPSTLSVSPGERATFSCRASQSIGTNIHWYQQKPGKPPRLLIKYASESISGIPDRFSGSGSGTEFTLTISSVQSEDFAVYYCQQNNNWPTTFGPGTKLELKGGGGSGGGGSGGGGSGGGGSQVQLQQSGPGLVKPSETLSITCTVSGFSLTNYGVHWIRQAPGKGLEWLGVIWSGGNTDYNTPFTSRFTITKDNSKNQVYFKLRSVRADDTAIYYCARALTYYDYEFAYWGQGTLVTVSSGSGGSPVAGPSVFLFPPKPKDTLMISRTPEVTCVVVDVSHEDPEVKFNWYVDGVEVHNAKTKPREEQYASTYRVVSVLTVLHQDWLNGKEYKCKVSNKALPAPIEKTISKAKGQPREPQVYTLPPSRDELTKNQVSLRCHVKGFYPSDIAVEWESNGQPENNYKTTKPVLDSDGSFFLYSTLTVDKSRWQQGNVFSCSVLHEALHNHYTQKSLSLSPGK | 3.05 nM | 0.00139 s⁻¹ | 450000 M⁻¹ s⁻¹ |  |
| SI-79SF12 (Fc fusion, also called H2; H2 scFv-monoFc) EIVLTQSPSILSVSPGERATFSCRASQSIGTNIHWYQQRPGKPPRLLIKYASESISGIPSRFSGSGSGTEFTLTITSVQSEDIAVYYCQQNNNWPTTFGPGTKLELKGGGGSGGGGSGGGGSGGGGSQVQLQQSGPGLVKPSQTLSITCTVSGFSLTNYGVHWIRQAPGKGLEWLGVIWSGGNTDYNTPFTSRFTISKDNSKNQVYFKLRSLRAEDTAIYYCARALTYYDYEFAYWGQGTLVTVSSGSGGSPVAGPSVFLFPPKPKDTLMISRTPEVTCVVVDVSHEDPEVKFNWYVDGVEVHNAKTKPREEQYASTYRVVSVLTVLHQDWLNGKEYKCKVSNKALPAPIEKTISKAKGQPREPQVYTLPPSRDELTKNQVSLRCHVKGFYPSDIAVEWESNGQPENNYKTTKPVLDSDGSFFLYSTLTVDKSRWQQGNVFSCSVLHEALHNHYTQKSLSLSPGK | 3.08 nM | 0.00151 s⁻¹ | 481000 M⁻¹ s⁻¹ |  |
| SI-79SF6 (Fc fusion, also called H7; H7 scFv-monoFc) EIVLTQSPSTLSVSPGERATFSCRASQSIGTNIHWYQQKPGKPPRLLIKYASESISGIPDRFSGSGSGTEFTLTISSVQSEDFAVYYCQQNNNWPTTFGPGTKLTVLGGGGSGGGGSGGGGSGGGGSQVQLQQSGPGLVKPSETLSITCTVSGFSLTNYGVHWIRQAPGKGLEWLGVIWSGGNTDYNTPFTSRFTITKDNSKNQVYFKLRSVRADDTAIYYCARALTYYDYEFAYWGQGTLVTVSSGSGGSPVAGPSVFLFPPKPKDTLMISRTPEVTCVVVDVSHEDPEVKFNWYVDGVEVHNAKTKPREEQYASTYRVVSVLTVLHQDWLNGKEYKCKVSNKALPAPIEKTISKAKGQPREPQVYTLPPSRDELTKNQVSLRCHVKGFYPSDIAVEWESNGQPENNYKTTKPVLDSDGSFFLYSTLTVDKSRWQQGNVFSCSVLHEALHNHYTQKSLSLSPGK | 3.14 nM | 0.00143 s⁻¹ | 447000 M⁻¹ s⁻¹ |  |
| SI-79SF10 (Fc fusion, also called H3; H3 scFv-monoFc) EIVLTQSPSILSVSPGERVTFSCRASQSIGTNIHWYQQRPGKPPRLLIKYASESISGIPARFSGSGSGTEFTLTISSVQSEDFATYYCQQNNNWPTTFGPGTKLELKGGGGSGGGGSGGGGSGGGGSQVQLVQSGPGLVKPSQTLSLTCTVSGFSLTNYGVHWIRQAPGKGLEWLGVIWSGGNTDYNTPFTSRFTITKDNSKNQVYFKLRSVRSEDTAVYYCARALTYYDYEFAYWGQGTLVTVSSGSGGSPVAGPSVFLFPPKPKDTLMISRTPEVTCVVVDVSHEDPEVKFNWYVDGVEVHNAKTKPREEQYASTYRVVSVLTVLHQDWLNGKEYKCKVSNKALPAPIEKTISKAKGQPREPQVYTLPPSRDELTKNQVSLRCHVKGFYPSDIAVEWESNGQPENNYKTTKPVLDSDGSFFLYSTLTVDKSRWQQGNVFSCSVLHEALHNHYTQKSLSLSPGK | 3.45 nM | 0.00177 s⁻¹ | 504000 M⁻¹ s⁻¹ |  |
| SI-79SF11 (Fc fusion, also called H5; H5 scFv-monoFc) EIQLTQSPSTLSVSPGERATFSCRASQSIGTNIHWYQQKTGQPPRLLIKYASESISGIPDRFSGSGSGTEFTLSITSVQSEDFAVYYCQQNNNWPTTFGPGTKLEILGGGGSGGGGSGGGGSGGGGSQVQLLQSGPGLVKPSETLSLTCTVSGFSLTNYGVHWIRQAPGKGLEWIGVIWSGGNTDYNTPFTSRFTISKDNSKNQVYFKLRSLTSEDTAIYYCARALTYYDYEFAYWGQGTLVTVSSGSGGSPVAGPSVFLFPPKPKDTLMISRTPEVTCVVVDVSHEDPEVKFNWYVDGVEVHNAKTKPREEQYASTYRVVSVLTVLHQDWLNGKEYKCKVSNKALPAPIEKTISKAKGQPREPQVYTLPPSRDELTKNQVSLRCHVKGFYPSDIAVEWESNGQPENNYKTTKPVLDSDGSFFLYSTLTVDKSRWQQGNVFSCSVLHEALHNHYTQKSLSLSPGK | 2.27 nM | 0.0011 s⁻¹ | 474000 M⁻¹ s⁻¹ |  |
| SI-79SF9 (Fc fusion, also called H6; H6 scFv-monoFc) EIVLTQSPSTLSVSPGERVSFSCRASQSIGTNIHWYQQRTGQPPRLLIKYASESISGIPARFSGSGSGTEFTLTITSVQSEDFAVYYCQQNNNWPTTFGQGTKLDIKGGGGSGGGGSGGGGSGGGGSQVQLLQSGPGLVKPSETLSITCTVSGFSLTNYGVHWIRQAPGKGLEWIGVIWSGGNTDYNTPFTSRFTITKDNSKNQVFFKLRSVRAEDTALYYCARALTYYDYEFAYWGQGTLVTVSSGSGGSPVAGPSVFLFPPKPKDTLMISRTPEVTCVVVDVSHEDPEVKFNWYVDGVEVHNAKTKPREEQYASTYRVVSVLTVLHQDWLNGKEYKCKVSNKALPAPIEKTISKAKGQPREPQVYTLPPSRDELTKNQVSLRCHVKGFYPSDIAVEWESNGQPENNYKTTKPVLDSDGSFFLYSTLTVDKSRWQQGNVFSCSVLHEALHNHYTQKSLSLSPGK | 3.42 nM | 0.00165 s⁻¹ | 476000 M⁻¹ s⁻¹ |  |
| SI-79SF8 (Fc fusion, also called H10; H10 scFv-monoFc) DIVLTQSPATLSVSPGERATLSCRASQSIGTNIHWYQQKPGQAPRLLIKYASESISGIPSRFSGSGSGTDFTLTISSVQSEDFAVYYCQQNNNWPTTFGQGTKLEIKGGGGSGGGGSGGGGSGGGGSQVQLQESGPGLVKPSESLSLTCTVSGFSLTNYGVHWVRQPPGKGLEWIGVIWSGGNTDYNTPFTSRVTISKDNSKNQVSLKMNSLTAADTAVYYCARALTYYDYEFAYWGQGTLVTVSSGSGGSPVAGPSVFLFPPKPKDTLMISRTPEVTCVVVDVSHEDPEVKFNWYVDGVEVHNAKTKPREEQYASTYRVVSVLTVLHQDWLNGKEYKCKVSNKALPAPIEKTISKAKGQPREPQVYTLPPSRDELTKNQVSLRCHVKGFYPSDIAVEWESNGQPENNYKTTKPVLDSDGSFFLYSTLTVDKSRWQQGNVFSCSVLHEALHNHYTQKSLSLSPGK | 6.77 nM | 0.00458 s⁻¹ | 665000 M⁻¹ s⁻¹ | 2 fold |
| SI-79SF13 (Fc fusion, also called H11; H11 scFv-monoFc) DIVLTQSPATLSVSPGERATLSCRASQSIGTNIHWYQQKPGQAPRLLIKYASESISGIPSRFSGSGSGTDFTLTISSVQSEDFAVYYCQQNNNWPTTFGQGTKLTVLGGGGSGGGGSGGGGSGGGGSQVQLQESGPGLVKPSESLSLTCTVSGFSLTNYGVHWVRQPPGKGLEWIGVIWSGGNTDYNTPFTSRVTISKDNSKNQVSLKMNSLTAADTAVYYCARALTYYDYEFAYWGQGTLVTVSSGSGGSPVAGPSVFLFPPKPKDTLMISRTPEVTCVVVDVSHEDPEVKFNWYVDGVEVHNAKTKPREEQYASTYRVVSVLTVLHQDWLNGKEYKCKVSNKALPAPIEKTISKAKGQPREPQVYTLPPSRDELTKNQVSLRCHVKGFYPSDIAVEWESNGQPENNYKTTKPVLDSDGSFFLYSTLTVDKSRWQQGNVFSCSVLHEALHNHYTQKSLSLSPGK | 6.74 nM | 0.00454 s⁻¹ | 661000 M⁻¹ s⁻¹ | 2 fold |
| SI-79SF3 (Fc fusion, also called H1; H1 scFv-monoFc) EIVMTQSPSTLSASVGDRVIITCRASQSIGTNIHWYQQKPGKAPKLLIYYASESISGIPSRFSGSGSGAEFTLTISSLQPDDFATYYCQQNNNWPTTFGQGTKLTVLGGGGSGGGGSGGGGSGGGGSEVQLVESGGGLVQPGGSLRLSCKVSGFSLTNYGVHWVRQAPGKGLEWVGVIWSGGNTDYNTPFTSRFTISRDTSKNTVYLQMNSLRAEDTAVYYCARALTYYDYEFAYWGQGTLVTVSSGSGGSPVAGPSVFLFPPKPKDTLMISRTPEVTCVVVDVSHEDPEVKFNWYVDGVEVHNAKTKPREEQYASTYRVVSVLTVLHQDWLNGKEYKCKVSNKALPAPIEKTISKAKGQPREPQVYTLPPSRDELTKNQVSLRCHVKGFYPSDIAVEWESNGQPENNYKTTKPVLDSDGSFFLYSTLTVDKSRWQQGNVFSCSVLHEALHNHYTQKSLSLSPGK | 13.1 nM | 0.00927 s⁻¹ | 718000 M⁻¹ s⁻¹ | 4 fold |
| SI-79SF5 (Fc fusion, also called H8; H8 scFv-monoFc) DIVLTQSPSSLSVSPGERVTISCRASQSIGTNIHWYQQKPGQAPRLLIKYASESISGIPSRFSGSGSGTDFTLTISSVESEDFAVYYCQQNNNWPTTFGQGTKLEIKGGGGSGGGGSGGGGSGGGGSQVQLVESGPGLVQPSGSLSLTCTVSGFSLTNYGVHWVRQAPGKGLEWVGVIWSGGNTDYNTPFTSRFTISKDNSKNQVYLKMNSLRAEDTAVYYCARALTYYDYEFAYWGQGTLVTVSSGSGGSPVAGPSVFLFPPKPKDTLMISRTPEVTCVVVDVSHEDPEVKFNWYVDGVEVHNAKTKPREEQYASTYRVVSVLTVLHQDWLNGKEYKCKVSNKALPAPIEKTISKAKGQPREPQVYTLPPSRDELTKNQVSLRCHVKGFYPSDIAVEWESNGQPENNYKTTKPVLDSDGSFFLYSTLTVDKSRWQQGNVFSCSVLHEALHNHYTQKSLSLSPGK | 6.79 nM | 0.00393 s⁻¹ | 571000 M⁻¹ s⁻¹ | 2 fold |
| SI-79SF7 (Fc fusion, also called H9; H9 scFv-monoFc) DIVLTQSPSSLSVSPGERVTISCRASQSIGTNIHWYQQKPGQAPRLLIKYASESISGIPSRFSGSGSGTDFTLTISSVESEDFAVYYCQQNNNWPTTFGQGTKLTVLGGGGSGGGGSGGGGSGGGGSQVQLVESGPGLVQPSGSLSLTCTVSGFSLTNYGVHWVRQAPGKGLEWVGVIWSGGNTDYNTPFTSRFTISKDNSKNQVYLKMNSLRAEDTAVYYCARALTYYDYEFAYWGQGTLVTVSSGSGGSPVAGPSVFLFPPKPKDTLMISRTPEVTCVVVDVSHEDPEVKFNWYVDGVEVHNAKTKPREEQYASTYRVVSVLTVLHQDWLNGKEYKCKVSNKALPAPIEKTISKAKGQPREPQVYTLPPSRDELTKNQVSLRCHVKGFYPSDIAVEWESNGQPENNYKTTKPVLDSDGSFFLYSTLTVDKSRWQQGNVFSCSVLHEALHNHYTQKSLSLSPGK | 6.92 nM | 0.00395 s⁻¹ | 563000 M⁻¹ s⁻¹ | 2 fold |
